Assay results as given in patent US20160002599A1.
Several values for one entry are separate records, joined by “and”; a condition that tells them apart may be missing. Equal entries are not always repeated.

Molecular target: von Willebrand factor (vWF)
Test: cell-based or functional assay

Chain of von Willebrand factor (vWF) (P04275 764-2813): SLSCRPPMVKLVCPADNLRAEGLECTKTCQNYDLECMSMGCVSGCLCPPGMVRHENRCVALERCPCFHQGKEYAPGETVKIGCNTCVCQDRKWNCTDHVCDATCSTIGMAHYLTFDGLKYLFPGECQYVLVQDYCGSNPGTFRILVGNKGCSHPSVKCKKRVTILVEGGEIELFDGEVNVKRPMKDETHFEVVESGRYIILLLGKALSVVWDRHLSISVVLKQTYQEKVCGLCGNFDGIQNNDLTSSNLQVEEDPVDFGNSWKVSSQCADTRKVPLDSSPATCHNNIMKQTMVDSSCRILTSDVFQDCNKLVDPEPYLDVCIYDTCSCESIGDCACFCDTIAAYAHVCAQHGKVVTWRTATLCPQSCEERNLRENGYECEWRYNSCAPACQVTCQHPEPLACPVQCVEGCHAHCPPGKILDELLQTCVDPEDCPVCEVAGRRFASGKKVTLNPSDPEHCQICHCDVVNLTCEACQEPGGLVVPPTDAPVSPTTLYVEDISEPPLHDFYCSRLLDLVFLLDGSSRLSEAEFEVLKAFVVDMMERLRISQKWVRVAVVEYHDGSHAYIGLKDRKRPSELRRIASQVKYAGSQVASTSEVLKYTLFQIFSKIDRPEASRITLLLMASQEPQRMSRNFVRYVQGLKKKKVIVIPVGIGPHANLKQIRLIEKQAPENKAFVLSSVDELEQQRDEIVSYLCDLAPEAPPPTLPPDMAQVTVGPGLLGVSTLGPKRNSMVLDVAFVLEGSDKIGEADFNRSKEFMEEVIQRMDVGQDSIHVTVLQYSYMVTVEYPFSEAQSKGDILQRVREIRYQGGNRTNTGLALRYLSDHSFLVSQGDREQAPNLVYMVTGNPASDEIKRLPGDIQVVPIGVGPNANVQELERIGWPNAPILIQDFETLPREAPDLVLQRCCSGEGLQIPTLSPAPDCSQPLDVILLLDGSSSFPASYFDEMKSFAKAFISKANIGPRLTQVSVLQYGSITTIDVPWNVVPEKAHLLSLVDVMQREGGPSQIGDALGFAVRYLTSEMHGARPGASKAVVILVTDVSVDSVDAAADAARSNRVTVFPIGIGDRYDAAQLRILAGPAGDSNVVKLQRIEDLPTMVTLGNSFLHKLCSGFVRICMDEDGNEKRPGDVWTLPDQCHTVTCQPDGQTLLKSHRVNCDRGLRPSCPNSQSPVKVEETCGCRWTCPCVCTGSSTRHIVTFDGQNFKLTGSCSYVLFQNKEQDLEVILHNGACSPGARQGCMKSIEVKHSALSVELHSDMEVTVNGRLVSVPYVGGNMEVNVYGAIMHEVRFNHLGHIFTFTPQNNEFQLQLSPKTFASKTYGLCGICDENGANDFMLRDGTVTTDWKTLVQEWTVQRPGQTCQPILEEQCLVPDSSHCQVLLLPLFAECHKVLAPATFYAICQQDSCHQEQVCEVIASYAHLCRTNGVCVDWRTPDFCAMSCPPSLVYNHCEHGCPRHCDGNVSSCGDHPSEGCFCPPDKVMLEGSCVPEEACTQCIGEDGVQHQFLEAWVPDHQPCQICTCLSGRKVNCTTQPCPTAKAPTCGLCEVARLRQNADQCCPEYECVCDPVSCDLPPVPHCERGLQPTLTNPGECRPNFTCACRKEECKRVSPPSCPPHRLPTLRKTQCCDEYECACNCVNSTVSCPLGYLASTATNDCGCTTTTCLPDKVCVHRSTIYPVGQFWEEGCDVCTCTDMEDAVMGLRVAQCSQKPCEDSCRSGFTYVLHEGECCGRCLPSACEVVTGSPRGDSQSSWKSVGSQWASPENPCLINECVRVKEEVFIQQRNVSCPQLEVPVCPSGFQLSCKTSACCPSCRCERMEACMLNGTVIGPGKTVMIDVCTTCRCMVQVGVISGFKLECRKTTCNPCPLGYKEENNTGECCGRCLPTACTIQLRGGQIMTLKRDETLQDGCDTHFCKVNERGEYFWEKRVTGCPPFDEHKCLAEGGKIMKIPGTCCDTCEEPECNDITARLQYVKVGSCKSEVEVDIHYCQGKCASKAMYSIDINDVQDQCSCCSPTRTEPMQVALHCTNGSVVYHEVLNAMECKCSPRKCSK

platelets bound to the channel (chamber coated with 10 ug/mL vWF, flow rate 1600 s-1): 62.3% and 75.8%
Substance: CD42b (from UniProt P07359 17-652) (receptor)
